Source: publication PMC7870846, “Incorporation of sensing modalities into de novo designed fluorescence-activating proteins” (Nature Communications, 2021)

Legend:
[1] = Fluorescence intensity assays of mFAP variants; format: biochemical; details: neutral pH, DFHBI
Experimental: To measure fluorescence intensities of the phenolate form of chromophores, fluorescence was measured on a Synergy Neo2 hybrid multi-mode reader (BioTek) in flat bottom, black polystyrene, non-binding surface 96-well microplates (Corning 3650). Fluorescence intensity was measured in triplicate by exciting at λex = 484 nm and measuring fluorescence emission at λem = 505 nm (or λem = 511 nm for clones harboring the W27 mutation) (Supplementary Fig. 1g, h). The W27 mutation redshifts the peak emission wavelength from λem = ~505 nm to λem = ~511 nm, presumably due to the W27 indole ring donating a hydrogen bond to the imidazolinone moiety of the deprotonated state of DFHBI, which stabilizes the chromophore conjugated π–electron system in the excited state causing the redshift in emission. Fifteen microliters of small-scale purified protein[49] was combined with 185 μL of Na2HPO4-citrate (pH 7.36) buffer supplemented with 150 mM NaCl and 108 nM DFHBI for a final concentration of 100 nM DFHBI. In measuring the excitation spectra from λem = 525 nm of each clone in triplicate (Supplementary Fig. 1i), 30.0 μL of large-scale purified protein[49] was combined with 170 μL of 25.0 mM Tris (pH 8.00) supplemented with 100 mM NaCl and 914 nM DFHBI for a final concentration of 7.77 μM protein and 777 nM DFHBI. In measuring the fluorescence intensity at λex = 484 nm and λem = 509 nm of each clone in triplicate (Supplementary Fig. 1j), 30.0 μL of large-scale purified protein[49] was combined with 170 μL of 25.0 mM Tris (pH 8.00) supplemented with 100 mM NaCl and 653 nM DFHBI for a final concentration of 5.55 μM protein and 555 nM DFHBI. In measuring fluorescence intensity at λex = 468 nm and λem = 530 nm of each clone in technical triplicate (Supplementary Fig. 1k), 24.0 μL of 35.4 µM large-scale purified protein[49] was combined with 1.00 μL of 1.25 µM DFHBI or 1.00 μL of 1.25 µM DFHBI-1T (Lucerna) (from […] chromophore stock solutions dissolved in 0.5% DMSO and 99.5% high-salt Tev cleavage buffer [25.0 mM Tris, 100 mM NaCl, pH 8.00]) for final concentrations of 34.0 μM protein and 50.0 nM chromophore. The mFAP9–DFHBI complex had ~1.1-fold the fluorescence intensity of the mFAP10–DFHBI complex, and the mFAP9–DFHBI-1T complex had ~0.75-fold the fluorescence intensity of the mFAP10–DFHBI-1T complex (Supplementary Fig. 1k). In collecting fluorescence emission spectra by exciting fluorescence at λex = 484 nm and collecting fluorescence emission at λem = 495–650 nm (Supplementary Fig. 6b), and in measuring fluorescence endpoints in techincal triplicate at unique peak excitation and emission wavelengths (Supplementary Fig. 6c), 195 μL of large-scale purified protein[49] was combined with 5.00 μL of 25 mM Tris (pH 8.00) supplemented with 100 mM NaCl and 40.0 μM DFHBI for a final concentration of 10.0 μM protein and 1.00 μM DFHBI.
In measuring fluorescence intensity of small-scale purified proteins[49] (Supplementary Table 1), wells were excited at λex = 488 nm for DFHBI and DFHBI-1T and λex = 505 nm for DFHO, and fluorescence emission measured at λem = 510 nm for DFHBI and DFHBI-1T and λem = 545 nm for DFHO. […]

[2] = In vitro chromophore titration with DFHBI (fluorescence, single-binding site isotherm fit)
Experimental: Fluorescence endpoints were measured on a Synergy Neo2 hybrid multi-mode reader (BioTek) in flat bottom, black polystyrene, non-binding surface 96-well microplates (Corning 3650). In measuring chromophore-binding affinities (Fig. 1d, e), mFAP2, mFAP2a, and mFAP2b, and mFAP10 were produced by large-scale protein purification and SEC purification. Proteins were aliquoted in eight technical replicates in 200 μL final volumes to 20.0 nM final concentration in ten serial dilutions ( 10 dilution factor) of DFHBI starting from 31.6 μM DFHBI or 31.6 μM DFHBI-1T final concentrations, including an eleventh condition without chromophore. Fluorescence was excited at λex = 468 nm and fluorescence emission measured at λem = 530 nm. Background fluorescence endpoints of wells with identical chromophore concentrations but purified protein replaced with an identical volume of high-salt Tev cleavage buffer were measured, and fluorescence endpoints subtracted from those measured with protein. Background-subtracted data were averaged and the means normalized from 0 to 1 and fit to a single-binding site isotherm function using non-linear least squares fitting to obtain a fitted Kd value (Table 1), and the fit scaled to the maximum mean value (Fig. 1d, e).

B1: mFAP2b: mFAP2.5 with V67I, "b" for bright (protein)
chain: SRAAQLLPGTWQVTMTNEDGQTSQGQWHFQPRSPYTMDIVAQGTISDGRPIVGYGKATVKTPDTLDIDITYPSLGNIKAQGQITMDSPTQFKWDATTKGENDFHGRLTGTLQRQE
[1]
  brighter than mFAP2.4: ~ 1.3 fold
  brighter than mFAP2.5: ~ 1.2 fold
[2]
  higher affinity for DFHBI than DFHBI-1T: ~ 6.1 fold
  weaker affinity for DFHBI than the initial mFAP2 design: ~ 10 fold
